Assay results: article PMC9098913, “In vitro reconstitution of Escherichia coli divisome activation” (Nature Communications, 2022)

Key:
FtsA self-interaction [1] = assay: FRET (acceptor photobleaching) self-interaction of FtsA on supported lipid bilayers; format: binding, E. coli
Source text: To directly measure FtsA self-interaction in our fluorescence microscopy experiments, we established a FRET (Förster resonance energy transfer)-based assay using FtsA labelled with either Cy5 (acceptor) or Cy3 (donor). […] We then decided to use this approach to measure the degree of FtsA self-interaction on supported lipid membranes by quantifying the increase in donor fluorescence after photobleaching the acceptor fluorophore[30]–[32] (Fig. 3c–e and Fig. S3d). […] As a negative control, we also attached the Hexahistidine-SUMO-tag (His-SUMO) labelled with Cy5 and Cy3 to membranes with an increasing density of Tris-NTA lipids.
Equimolar concentrations of Cy3- and Cy5-labelled FtsA, supplemented with 20% unlabelled FtsA were used to study FRET and FRAP. Five pre-bleach frames were acquired, followed by acceptor photobleaching of a rectangular ROI with 40% 641 nm laser power and a dwell size of 1 µs/pixel, 75% overlapping lines. The recovery of the signal or the increase in donor intensity were measured with either two frames or one frame per second.
(§1) Bleaching the acceptor dye leads to an increase in the donor intensity, which can be used to quantify the Foerster Resonance energy transfer (FRET)[48]. FRET efficiency was quantified with E%=Ipost/Ipost+Ipre⋅100 , where Ipost is the intensity of the […] and Ipre is the […]. […] To extract the contribution of both processes, we adjusted a routine recently published by Gerganova et al.[33]. In short, the code provides the contribution of both modes of recovery by analysing the shape of the fluorescence recovery profile. […] Contribution of diffusion leads to a change of the slope of the outer borders of the bleached region (S4h right). Thus, by measuring the change of the slope of the border recovery, diffusion and simple on/off binding can be distinguished. We developed “FRAPdiff”, a graphical user interface, which uses the original fit routine by David Rutkowski. It can be used directly on.tiff movies with annotated bleach regions as ImageJ ROIs. In addition, we added optional bleach correction, user selectable projection axis (x or y), and optional mirroring of the recovery profiles, if bleaching was not symmetric. The original fit routine for estimating the recovery and diffusion dynamics can be found at https://github.com/davidmrutkowski/1DReflectingDiffusion. FRAPdiff is available at 10.5281/zenodo.6400639[49] under the GPLv3 open-source license.

[2] = Diffusion coefficient of His-tagged FtsAs and His-SUMO on Tris-NTA membranes (FRAP); conditions: without FtsZ
Protocol: (§2) To study colocalization of His-tagged variants of FtsA, 0.5–1 µM of Cy5 labelled His-tagged FtsAs were added to the chamber, incubated for 20 min and washed 6x with reaction buffer. […] To control the density of membrane-bound FtsA, SUVs without and with Tris-NTA lipids were mixed to obtain the respective Tris-NTA concentrations. To perform FRET/FRAP experiments, equimolar concentrations of Cy3 and Cy5 labelled His-tagged FtsAs (total 0.5–1 µM) or His-SUMO-Cys were added to a chamber and treated as above. […] FRAP experiments were performed as described before.
as §1

FtsA self-interaction [3] = assay: FRET self-interaction of His-tagged FtsAs (and His-SUMO control) on Tris-NTA membranes; format: binding, E. coli; conditions: without FtsZ
Protocol: as §2, §1

[4] = target: the molecule itself; assay: FRET or BRET; acceptor photobleaching; equimolar Cy3- and Cy5-labelled His-tagged protein (total 0.5-1 µM, washed) attached to bilayers with varied Tris-NTA lipid density

Nc1ncnc2c1ncn2[C@@H]1O[C@H](CO[P@](=O)(O)O[P@](=O)(O)O[P@@](=O)(O)S)[C@@H](O)[C@H]1O [ATPγS, reference compound]
effect of replacing ATP with ATPγS on membrane-binding, self-interaction or membrane-binding dynamics (FtsA self-interaction [1]): no significant effect

B1: His6-SUMO (protein, UniProt Q12306 2-98, looked up)
Ubiquitin-like protein SMT3: SDSEVNQEAKPEVKPEVKPETHINLKVSDGSSEIFFKIKKTTPLRRLMEAFAKRQGKEMDSLRFLYDGIRIQADQTPEDLDMEDNDIIEAHREQIGG
modifications: His6 tag
Diffusion Coefficient ([2]; 0.1% Tris NTA, replicate Exp1): 0.47 µm2/s | Diffusion Coefficient ([2]; 0.1% Tris NTA, replicate Exp2): 0.69 µm2/s | Diffusion Coefficient ([2]; 0.4% Tris NTA, replicate Exp1): 0.55 µm2/s | Diffusion Coefficient ([2]; 0.4% Tris NTA, replicate Exp2): 0.53 µm2/s | Diffusion Coefficient ([2]; 0.4% Tris NTA, replicate Exp3): 0.48 µm2/s | Diffusion Coefficient ([2]; 0.6% Tris NTA, replicate Exp1): 0.58 µm2/s | Diffusion Coefficient ([2]; 0.6% Tris NTA, replicate Exp2): 0.54 µm2/s | Diffusion Coefficient ([2]; 0.6% Tris NTA, replicate Exp3): 0.58 µm2/s | Diffusion Coefficient ([2]; 0.6% Tris NTA, replicate Exp4): 0.63 µm2/s | Diffusion Coefficient ([2]; 0.8% Tris NTA, mean): 0.52 µm2/s | Diffusion Coefficient ([2]; 0.8% Tris NTA, replicate Exp1): 0.56 µm2/s | Diffusion Coefficient ([2]; 0.8% Tris NTA, replicate Exp2): 0.53 µm2/s | Diffusion Coefficient ([2]; 0.8% Tris NTA, replicate Exp3): 0.48 µm2/s | Diffusion Coefficient ([2]; 0.8% Tris NTA, replicate Exp4): 0.52 µm2/s | Diffusion Coefficient ([2]; 1% Tris NTA, mean): 0.57 µm2/s | Diffusion Coefficient ([2]; 1% Tris NTA, replicate Exp1): 0.45 µm2/s | Diffusion Coefficient ([2]; 1% Tris NTA, replicate Exp2): 0.57 µm2/s | Diffusion Coefficient ([2]; 1% Tris NTA, replicate Exp3): 0.66 µm2/s | Diffusion Coefficient ([2]; 1% Tris NTA, replicate Exp4): 0.60 µm2/s | Diffusion Coefficient ([2]; 1% Tris NTA, replicate Exp5): 0.57 µm2/s | Diffusion Coefficient ([2]; 1% Tris NTA, replicate Exp6): 0.68 µm2/s | Diffusion Coefficient ([2]; 1% Tris NTA, replicate Exp7): 0.62 µm2/s | Diffusion Coefficient ([2]; 1% Tris NTA, replicate Exp8): 0.43 µm2/s | Diffusion Coefficient ([2]; Tris 0.10 %): 0.58 µm2/s | Diffusion Coefficient ([2]; Tris 0.40 %): 0.52 µm2/s | Diffusion Coefficient ([2]; Tris 0.60 %): 0.58 µm2/s | Diffusion Coefficient ([2]; Tris 0.80 %): 0.52 µm2/s | Diffusion Coefficient ([2]; Tris 1.00 %): 0.57 µm2/s | Diffusion Coefficient ([2]; Tris 2.00 %): 0.58 µm2/s | Diffusion Coefficient ([2]; Tris […]): 0.56 µm2/s | Diffusion Coefficient ([2]; […] Tris NTA, mean (n: WT 2, R286W 3, SUMO 3)): 0.56 µm2/s | Diffusion Coefficient ([2]; […] Tris NTA, replicate Exp1): 0.47 µm2/s | Diffusion Coefficient ([2]; […] Tris NTA, replicate Exp2): 0.67 µm2/s | Diffusion Coefficient ([2]; […] Tris NTA, replicate Exp3): 0.53 µm2/s | FRET efficiency (FtsA self-interaction [3]; 0.1% Tris NTA, Exp1): 1.02% | FRET efficiency (FtsA self-interaction [3]; 0.1% Tris NTA, Exp2): 1.41% | FRET efficiency (FtsA self-interaction [3]; 0.1% Tris NTA, mean, n = 2): 1.21% | FRET efficiency (FtsA self-interaction [3]; 0.4% Tris NTA, Exp1): 1.31% | FRET efficiency (FtsA self-interaction [3]; 0.4% Tris NTA, Exp2): 1.55% | FRET efficiency (FtsA self-interaction [3]; 0.4% Tris NTA, Mean, n = 2): 1.43% | FRET efficiency (FtsA self-interaction [3]; 0.6% Tris NTA, Exp1): 0.86% | FRET efficiency (FtsA self-interaction [3]; 0.6% Tris NTA, Exp2): 0.95% | FRET efficiency (FtsA self-interaction [3]; 0.6% Tris NTA, Mean, n = 3 (His6-SUMO n = 2)): 0.91% | FRET efficiency (FtsA self-interaction [3]; 0.8% Tris NTA, Exp1): 0.27% | FRET efficiency (FtsA self-interaction [3]; 0.8% Tris NTA, Exp2): 0.30% | FRET efficiency (FtsA self-interaction [3]; 0.8% Tris NTA, Mean, n = 3 (His6-SUMO n = 2)): 0.29% | FRET efficiency (FtsA self-interaction [3]; 1% Tris NTA, Exp1): 0.57% | FRET efficiency (FtsA self-interaction [3]; 1% Tris NTA, Exp2): 0.59% | FRET efficiency (FtsA self-interaction [3]; 1% Tris NTA, Exp3): 0.56% | FRET efficiency (FtsA self-interaction [3]; 1% Tris NTA, Mean, n = 3 (R286W-His6 n = 4)): 0.57% | FRET efficiency (FtsA self-interaction [3]; 2% Tris NTA, Exp1): 0.56% | FRET efficiency (FtsA self-interaction [3]; 2% Tris NTA, Exp2): 0.41% | FRET efficiency (FtsA self-interaction [3]; 2% Tris NTA, Mean, n = 2): 0.49% | FRET efficiency (FtsA self-interaction [3]; Tris 0.40 %, mean): 1.43% | FRET efficiency (FtsA self-interaction [3]; Tris 0.60 %, mean): 0.91% | FRET efficiency (FtsA self-interaction [3]; Tris 0.80 %, mean): 0.28% | FRET efficiency (FtsA self-interaction [3]; Tris 1.00 %, mean): 0.57% | FRET efficiency (FtsA self-interaction [3]; Tris 2.00 %, mean): 0.49% | FRET efficiency (FtsA self-interaction [3]; […] Tris NTA, Exp1): 1.47% | FRET efficiency (FtsA self-interaction [3]; […] Tris NTA, Exp2): 1.00% | FRET efficiency (FtsA self-interaction [3]; […] Tris NTA, mean, n = 2): 1.23%

B2: FtsA WT (1-405)-6xHis (domain or fragment, E. coli, UniProt P0ABH0 1-405, looked up)
chain: MIKATDRKLVVGLEIGTAKVAALVGEVLPDGMVNIIGVGSCPSRGMDKGGVNDLESVVKCVQRAIDQAELMADCQISSVYLALSGKHISCQNEIGMVPISEEEVTQEDVENVVHTAKSVRVRDEHRVLHVIPQEYAIDYQEGIKNPVGLSGVRMQAKVHLITCHNDMAKNIVKAVERCGLKVDQLIFAGLASSYSVLTEDERELGVCVVDIGGGTMDIAVYTGGALRHTKVIPYAGNVVTSDIAYAFGTPPSDAEAIKVRHGCALGSIVGKDESVEVPSVGGRPPRSLQRQTLAEVIEPRYTELLNLVNEEILQLQEKLRQQGVKHHLAAGIVLTGGAAQIEGLAACAQRVFHTQVRIGAPLNITGLTDYAQEPYYSTAVGLLHYGKESHLNGEAEVEKRVTASV
modifications: Cy3 or Cy5 at the N-terminus in the labelled form (sortagging as for native FtsA)
notes: FtsA, E. coli, residues 1-405; plasmid pNB4; Attached to membranes through Tris-NTA lipids by its His tag; also called FtsA-His6; FtsA WT-His6; source: E. coli BL21, purified (as native FtsA); not shown: TwinStrep-SUMO, N-terminal, cleaved; 5xGlycine tag, N-terminal, kept; His6, C-terminal, kept
binding result [4]: binds
